Literature values, collected in publication PMC4286324.

Biological target: Nef (Human immunodeficiency virus 1) (UniProt P04324)

For Hck SH3 (from UniProt P08631), the Kd is listed as 250 nM.
